Tested on: recombinant streptokinase produced with the pET21b expression construct (double-mutant, plasmin-resistant, polyhistidine-tagged)

Row | Substance | streptokinase proteolysis followed by Western blot, 1:1 mole ratio (data not shown) | conversion of recombinant plasminogen to recombinant plasmin, time course on reducing SDS-PAGE, 100:1 mole ratio plasminogen:streptokinase
1 | recombinant plasmin | a very stable streptokinase fragment was generated, even at t=18 hours into the reaction | 
2 | recombinant plasminogen |  | At t=18 hours into the reaction, nearly all of the recombinant plasminogen had been converted to recombinant plasmin

Source: patent US20110201077
